Experimental data as given in paper PMC6321010, “Interaction of the GTPase Elongation Factor Like-1 with the Shwachman-Diamond Syndrome Protein and Its Missense Mutations” (International Journal of Molecular Sciences, 2018).

T1: human Elongation Factor Like-1 (EFL1) (human, UniProt Q7Z2Z2 1-1120)
T1 construct: human EFL1, GTPase, said to comprise 1120 residues; the expressed protein is fused to a TEV recognition site and a hexahistidine tag at the C-terminus; also called human EFL1; GTPase Elongation Factor Like-1; source: S. cerevisiae BCY123 (pRS426 backbone, GAL1/10 promoter), purified
T1 sequence: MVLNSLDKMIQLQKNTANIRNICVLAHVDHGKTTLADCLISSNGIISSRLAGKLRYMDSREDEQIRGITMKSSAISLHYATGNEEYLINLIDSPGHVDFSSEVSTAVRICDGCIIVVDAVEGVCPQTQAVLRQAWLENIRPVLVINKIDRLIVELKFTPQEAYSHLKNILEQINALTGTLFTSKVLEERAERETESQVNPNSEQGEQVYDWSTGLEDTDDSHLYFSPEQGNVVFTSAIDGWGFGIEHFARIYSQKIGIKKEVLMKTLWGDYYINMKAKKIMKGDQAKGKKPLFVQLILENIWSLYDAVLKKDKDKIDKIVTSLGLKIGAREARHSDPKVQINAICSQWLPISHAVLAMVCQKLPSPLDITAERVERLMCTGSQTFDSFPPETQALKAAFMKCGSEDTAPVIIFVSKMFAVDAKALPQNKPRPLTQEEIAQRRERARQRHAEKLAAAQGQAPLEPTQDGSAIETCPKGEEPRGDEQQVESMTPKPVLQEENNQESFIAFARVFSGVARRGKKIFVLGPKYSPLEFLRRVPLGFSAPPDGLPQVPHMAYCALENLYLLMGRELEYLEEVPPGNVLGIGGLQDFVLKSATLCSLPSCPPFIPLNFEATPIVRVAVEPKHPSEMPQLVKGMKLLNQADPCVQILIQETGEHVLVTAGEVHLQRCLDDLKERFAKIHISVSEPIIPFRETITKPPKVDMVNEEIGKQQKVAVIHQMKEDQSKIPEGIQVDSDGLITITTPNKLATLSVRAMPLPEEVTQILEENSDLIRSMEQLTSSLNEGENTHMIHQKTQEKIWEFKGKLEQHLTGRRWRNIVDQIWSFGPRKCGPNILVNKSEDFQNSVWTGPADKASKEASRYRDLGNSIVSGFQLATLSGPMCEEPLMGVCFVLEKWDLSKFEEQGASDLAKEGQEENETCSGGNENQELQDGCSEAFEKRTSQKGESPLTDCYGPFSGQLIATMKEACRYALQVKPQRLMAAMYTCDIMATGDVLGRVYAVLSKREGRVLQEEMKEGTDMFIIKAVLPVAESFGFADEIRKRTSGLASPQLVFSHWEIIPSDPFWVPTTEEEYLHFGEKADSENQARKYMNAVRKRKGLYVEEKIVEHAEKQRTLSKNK

T2: yeast SBDS orthologue Sdo1 (recombinant, for SAXS) (yeast (S. cerevisiae), UniProt Q07953 1-250)
T2 construct: Sdo1, the yeast orthologue of SBDS; called the full-length Sdo1; source: E. coli C41 (pRSET plasmid), purified by conventional chromatographic techniques
T2 sequence (looked up): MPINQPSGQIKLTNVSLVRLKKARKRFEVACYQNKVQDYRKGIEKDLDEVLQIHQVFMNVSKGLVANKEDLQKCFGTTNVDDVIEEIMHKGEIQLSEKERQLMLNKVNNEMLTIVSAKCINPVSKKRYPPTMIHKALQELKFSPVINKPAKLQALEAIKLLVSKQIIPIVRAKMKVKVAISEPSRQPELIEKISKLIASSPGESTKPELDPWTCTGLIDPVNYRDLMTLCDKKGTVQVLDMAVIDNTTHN


Experiments:
[1] = biological target: T1, human Elongation Factor Like-1 (EFL1); assay: fluorescence polarisation; fluorescence anisotropy; 2 µL additions of 40-90 µM human EFL1 titrated into 300 µL of 0.1 µM Lumio Green-labelled human SBDS-FlAsH construct; 25 °C; 50 mM Tris-HCl pH 8, 300 mM NaCl, 5 mM β-mercaptoethanol; fitted to a single-site or a two different binding sites model; settings: both partners purified
[2] = biological target: T2, yeast SBDS orthologue Sdo1 …; assay: SAXS coupled to on-line size exclusion chromatography; yeast Sdo1, EFL1 and the complex EFL1•Sdo1 at 10, 6.5 and 8 mg/mL injected onto a Shodex KW-403 column; 50 mM Tris pH 8.0, 10% glycerol, 300 mM NaCl, 5 mM MgCl2; settings: both partners purified

Row | Binder | Kd [1] [µM] | stoichiometry N [2]
1 | human SBDS domain 1 (residues 1-94) with C-terminal FlAsH tag, labelled with Lumio Green (domain or fragment, UniProt Q9Y3A5 1-94, looked up, Lumio Green dye (4',5'-bis(1,3,2-dithioarsolan-2-yl) fluorescein) on the C-terminal FlAsH tag, human SBDS, domain 1, residues 1-94; also called domain 1 of SBDS; source: E. coli C41 (pRSET plasmid), purified by conventional chromatographic techniques; not shown: FlAsH tag (Cys-Cys-Pro-Gly-Cys-Cys), C-terminal, kept) MSIFTPTNQIRLTNVAVVRMKRAGKRFEIACYKNKVVGWRSGVEKDLDEVLQTHSVFVNVSKGQVAKKEDLISAFGTDDQTEICKQILTKGEVQ | 15.2 ± 0.72 | –
2 | yeast EFL1 (recombinant, for SAXS) (enzyme, yeast (S. cerevisiae), UniProt P53893 1-1110, looked up, yeast EFL1 (GTPase); the model's rigid parts run over residues 1-1110; source: S. cerevisiae BCY123 (pRS426 backbone, GAL1/10 promoter), purified) MPRVESETYKRLQNDPSCIRNICIVAHVDHGKTSLSDSLLASNGIISQRLAGKIRFLDARPDEQLRGITMESSAISLYFRVLRKQEGSDEPLVSEHLVNLIDSPGHIDFSSEVSAASRLCDGAVVLVDVVEGVCSQTVTVLRQCWTEKLKPILVLNKIDRLITELQLTPQEAYIHLSKVIEQVNSVIGSFFANERQLDDLFWREQLEKNENAEYIEKDDSGIYFNPTDNNVIFASAIDGWGFNIGQLAKFYEQKLGAKRENLQKVLWGDFYMDPKTKKIINNKGLKGRSLKPLFTSLILENIWKIYQNIITSRDSEMVEKIAKTLNIKLLARDLRSKDDKQLLRTIMGQWLPVSTAVLLTVIEKLPSPLESQTDRLNTILVSESDTAAMDPRLLKAMKTCDKEGPVSAYVSKMLSIPREELPVESKRIASSDELMERSRKAREEALNAAKHAGMVENMAMMDLNDNSKNTSDLYKRAKDTVMTPEVGEQTKPKPSRNNDVFCVVSEPSSALDLEFEYEGEDDSDSQDNFGLDFVPTDIDPNDPLSSMFEYEEEDPLLESIKQISEDVNDEVDDIFDEKEECLVAFARIYSGTLRVGQEISVLGPKYDPKCPEEHIETAIITHLYLFMGKELVPLDVCPSGNIVGIRGLAGKVLKSGTLIEKGVQGVNLAGVNFHFTPIVRVAVEPANPVEMSKLVRGLKLLDQADPCVHTYVENTGEHILCTAGELHLERCLKDLTERFAGIEITHSEPAIPYRETFLSASDMNPPQNSQLGRGVHELLLSQYKITFRTFPLSGKVTDFLSQHQNSIKNILKTSTSSMDPVIESTGSSFLDKKSLLVAFEEVINQEEKSRELLSGFKVKLAGFGPSRVGCNILLSQDNLLGSLFEGTPAAFEYSDSIKNGFQLAVSEGPLANEPVQGMCVLVESVHKMSQDEIESIEDPRYQQHIVDLSGRLITSTRDAIHEAFLDWSPRIMWAIYSCDIQTSVDVLGKVYAVILQRHGKIISEEMKEGTPFFQIEAHVPVVEAFGLSEDIRKRTSGAAQPQLVFSGFECIDLDPFWVPTTEEELEELGDTADRENIARKHMNAIRRRKGLFIEEKVVENAEKQRTLKKN | – | 1

Further binders by falling Kd [1], results first:

Row | Kd [1] [µM] | stoichiometry N [2] | Binder
3 | 10.8 ± 0.9 | – | human SBDS domain 2 (residues 94-175) with C-terminal FlAsH tag, labelled with Lumio Green (domain or fragment, UniProt Q9Y3A5 94-175, looked up, Lumio Green dye (4',5'-bis(1,3,2-dithioarsolan-2-yl) fluorescein) on the C-terminal FlAsH tag, human SBDS, domain 2, residues 94-175; also called domain 2 of SBDS; source: E. coli C41 (pRSET plasmid), purified by conventional chromatographic techniques; not shown: FlAsH tag (Cys-Cys-Pro-Gly-Cys-Cys), C-terminal, kept) QVSDKERHTQLEQMFRDIATIVADKCVNPETKRPYTVILIERAMKDIHYSVKTNKSTKQQALEVIKQLKEKMKIERAHMRLR
4 | 4.6 ± 0.3 | – | human SBDS domains 2-3 (residues 94-250) with C-terminal FlAsH tag, labelled with Lumio Green (domain or fragment, UniProt Q9Y3A5 94-250, looked up, Lumio Green dye (4',5'-bis(1,3,2-dithioarsolan-2-yl) fluorescein) on the C-terminal FlAsH tag, human SBDS, domains 2-3, residues 94-250; also called construct consisting of domains 2-3 of SBDS; source: E. coli C41 (pRSET plasmid), purified by conventional chromatographic techniques; not shown: FlAsH tag (Cys-Cys-Pro-Gly-Cys-Cys), C-terminal, kept) QVSDKERHTQLEQMFRDIATIVADKCVNPETKRPYTVILIERAMKDIHYSVKTNKSTKQQALEVIKQLKEKMKIERAHMRLRFILPVNEGKKLKEKLKPLIKVIESEDYGQQLEIVCLIDPGCFREIDELIKKETKGKGSLEVLNLKDVEEGDEKFE
